Data from patent US20210388087A1 (Chugai, published 2021).

T1: Human CD3eg linker (human)
T1 construct: Single-chain construct; also called recombinant human CD3
T1 chain: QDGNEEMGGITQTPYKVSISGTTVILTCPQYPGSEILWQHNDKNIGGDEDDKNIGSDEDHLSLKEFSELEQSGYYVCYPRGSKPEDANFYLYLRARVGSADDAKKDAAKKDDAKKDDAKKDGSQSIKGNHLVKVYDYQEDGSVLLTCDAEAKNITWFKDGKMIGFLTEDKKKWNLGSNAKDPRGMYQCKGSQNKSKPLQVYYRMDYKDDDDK


Target: T1, Human CD3eg linker
Assay: SPR; fold vs parent H183/L072

Row | fold change of affinity [fold] | Binder
1 | 0.5 | H183/L072 VL V51M (antibody, name in Kabat numbering, V domains shown) VH: QVQLVESGGGLVQPGRSLRLSCAASGFTFSNAWMHWVRQAPGKGLEWVAQIKDKGNAYAAYYAPSVKGRFTISRDDSKNSIYLQMNSLKTEDTAVYYCHYVHYASASTVLPAFGVDAWGQGTTVTVSS VL: DIVMTQSPLSLPVTPGEPASISCQASQELVHMNRNTYLHWYQQKPGQAPRLLIYKMSNRFPGVPDRFSGSGSGTDFTLKISRVEAEDVGVYYCAQGTSVPFTFGQGTKLEIK
2 | 0.5 | H183/L072 VL V51Q (antibody, name in Kabat numbering, V domains shown) VH: QVQLVESGGGLVQPGRSLRLSCAASGFTFSNAWMHWVRQAPGKGLEWVAQIKDKGNAYAAYYAPSVKGRFTISRDDSKNSIYLQMNSLKTEDTAVYYCHYVHYASASTVLPAFGVDAWGQGTTVTVSS VL: DIVMTQSPLSLPVTPGEPASISCQASQELVHMNRNTYLHWYQQKPGQAPRLLIYKQSNRFPGVPDRFSGSGSGTDFTLKISRVEAEDVGVYYCAQGTSVPFTFGQGTKLEIK
3 | 0.3 | H183/L072 VL V51S (antibody, name in Kabat numbering, V domains shown) VH: QVQLVESGGGLVQPGRSLRLSCAASGFTFSNAWMHWVRQAPGKGLEWVAQIKDKGNAYAAYYAPSVKGRFTISRDDSKNSIYLQMNSLKTEDTAVYYCHYVHYASASTVLPAFGVDAWGQGTTVTVSS VL: DIVMTQSPLSLPVTPGEPASISCQASQELVHMNRNTYLHWYQQKPGQAPRLLIYKSSNRFPGVPDRFSGSGSGTDFTLKISRVEAEDVGVYYCAQGTSVPFTFGQGTKLEIK
4 | 1.5 | H183/L072 VL V94P (antibody, name in Kabat numbering, V domains shown) VH: QVQLVESGGGLVQPGRSLRLSCAASGFTFSNAWMHWVRQAPGKGLEWVAQIKDKGNAYAAYYAPSVKGRFTISRDDSKNSIYLQMNSLKTEDTAVYYCHYVHYASASTVLPAFGVDAWGQGTTVTVSS VL: DIVMTQSPLSLPVTPGEPASISCQASQELVHMNRNTYLHWYQQKPGQAPRLLIYKVSNRFPGVPDRFSGSGSGTDFTLKISRVEAEDVGVYYCAQGTSPPFTFGQGTKLEIK
5 | 1 | H183/L072 VL V94Q (antibody, name in Kabat numbering, V domains shown) VH: QVQLVESGGGLVQPGRSLRLSCAASGFTFSNAWMHWVRQAPGKGLEWVAQIKDKGNAYAAYYAPSVKGRFTISRDDSKNSIYLQMNSLKTEDTAVYYCHYVHYASASTVLPAFGVDAWGQGTTVTVSS VL: DIVMTQSPLSLPVTPGEPASISCQASQELVHMNRNTYLHWYQQKPGQAPRLLIYKVSNRFPGVPDRFSGSGSGTDFTLKISRVEAEDVGVYYCAQGTSQPFTFGQGTKLEIK
6 | 0.5 | H183/L072 VL V94D (antibody, name in Kabat numbering, V domains shown) VH: QVQLVESGGGLVQPGRSLRLSCAASGFTFSNAWMHWVRQAPGKGLEWVAQIKDKGNAYAAYYAPSVKGRFTISRDDSKNSIYLQMNSLKTEDTAVYYCHYVHYASASTVLPAFGVDAWGQGTTVTVSS VL: DIVMTQSPLSLPVTPGEPASISCQASQELVHMNRNTYLHWYQQKPGQAPRLLIYKVSNRFPGVPDRFSGSGSGTDFTLKISRVEAEDVGVYYCAQGTSDPFTFGQGTKLEIK
7 | 1 | H183/L072 VL V94A (antibody, name in Kabat numbering, V domains shown) VH: QVQLVESGGGLVQPGRSLRLSCAASGFTFSNAWMHWVRQAPGKGLEWVAQIKDKGNAYAAYYAPSVKGRFTISRDDSKNSIYLQMNSLKTEDTAVYYCHYVHYASASTVLPAFGVDAWGQGTTVTVSS VL: DIVMTQSPLSLPVTPGEPASISCQASQELVHMNRNTYLHWYQQKPGQAPRLLIYKVSNRFPGVPDRFSGSGSGTDFTLKISRVEAEDVGVYYCAQGTSAPFTFGQGTKLEIK
8 | 0.5 | H183/L072 VL V94R (antibody, name in Kabat numbering, V domains shown) VH: QVQLVESGGGLVQPGRSLRLSCAASGFTFSNAWMHWVRQAPGKGLEWVAQIKDKGNAYAAYYAPSVKGRFTISRDDSKNSIYLQMNSLKTEDTAVYYCHYVHYASASTVLPAFGVDAWGQGTTVTVSS VL: DIVMTQSPLSLPVTPGEPASISCQASQELVHMNRNTYLHWYQQKPGQAPRLLIYKVSNRFPGVPDRFSGSGSGTDFTLKISRVEAEDVGVYYCAQGTSRPFTFGQGTKLEIK
9 | 0.2 | H183/L072 VL V51T (antibody, name in Kabat numbering, V domains shown) VH: QVQLVESGGGLVQPGRSLRLSCAASGFTFSNAWMHWVRQAPGKGLEWVAQIKDKGNAYAAYYAPSVKGRFTISRDDSKNSIYLQMNSLKTEDTAVYYCHYVHYASASTVLPAFGVDAWGQGTTVTVSS VL: DIVMTQSPLSLPVTPGEPASISCQASQELVHMNRNTYLHWYQQKPGQAPRLLIYKTSNRFPGVPDRFSGSGSGTDFTLKISRVEAEDVGVYYCAQGTSVPFTFGQGTKLEIK
10 | 0.8 | H183/L072 VL V94M (antibody, name in Kabat numbering, V domains shown) VH: QVQLVESGGGLVQPGRSLRLSCAASGFTFSNAWMHWVRQAPGKGLEWVAQIKDKGNAYAAYYAPSVKGRFTISRDDSKNSIYLQMNSLKTEDTAVYYCHYVHYASASTVLPAFGVDAWGQGTTVTVSS VL: DIVMTQSPLSLPVTPGEPASISCQASQELVHMNRNTYLHWYQQKPGQAPRLLIYKVSNRFPGVPDRFSGSGSGTDFTLKISRVEAEDVGVYYCAQGTSMPFTFGQGTKLEIK
11 | 0.9 | H183/L072 VL V94N (antibody, name in Kabat numbering, V domains shown) VH: QVQLVESGGGLVQPGRSLRLSCAASGFTFSNAWMHWVRQAPGKGLEWVAQIKDKGNAYAAYYAPSVKGRFTISRDDSKNSIYLQMNSLKTEDTAVYYCHYVHYASASTVLPAFGVDAWGQGTTVTVSS VL: DIVMTQSPLSLPVTPGEPASISCQASQELVHMNRNTYLHWYQQKPGQAPRLLIYKVSNRFPGVPDRFSGSGSGTDFTLKISRVEAEDVGVYYCAQGTSNPFTFGQGTKLEIK
12 | 0.7 | H183/L072 VL V94S (antibody, name in Kabat numbering, V domains shown) VH: QVQLVESGGGLVQPGRSLRLSCAASGFTFSNAWMHWVRQAPGKGLEWVAQIKDKGNAYAAYYAPSVKGRFTISRDDSKNSIYLQMNSLKTEDTAVYYCHYVHYASASTVLPAFGVDAWGQGTTVTVSS VL: DIVMTQSPLSLPVTPGEPASISCQASQELVHMNRNTYLHWYQQKPGQAPRLLIYKVSNRFPGVPDRFSGSGSGTDFTLKISRVEAEDVGVYYCAQGTSSPFTFGQGTKLEIK
13 | 0.8 | H183/L072 VL V94H (antibody, name in Kabat numbering, V domains shown) VH: QVQLVESGGGLVQPGRSLRLSCAASGFTFSNAWMHWVRQAPGKGLEWVAQIKDKGNAYAAYYAPSVKGRFTISRDDSKNSIYLQMNSLKTEDTAVYYCHYVHYASASTVLPAFGVDAWGQGTTVTVSS VL: DIVMTQSPLSLPVTPGEPASISCQASQELVHMNRNTYLHWYQQKPGQAPRLLIYKVSNRFPGVPDRFSGSGSGTDFTLKISRVEAEDVGVYYCAQGTSHPFTFGQGTKLEIK
14 | 0.2 | H183/L072 VL V94F (antibody, name in Kabat numbering, V domains shown) VH: QVQLVESGGGLVQPGRSLRLSCAASGFTFSNAWMHWVRQAPGKGLEWVAQIKDKGNAYAAYYAPSVKGRFTISRDDSKNSIYLQMNSLKTEDTAVYYCHYVHYASASTVLPAFGVDAWGQGTTVTVSS VL: DIVMTQSPLSLPVTPGEPASISCQASQELVHMNRNTYLHWYQQKPGQAPRLLIYKVSNRFPGVPDRFSGSGSGTDFTLKISRVEAEDVGVYYCAQGTSFPFTFGQGTKLEIK
15 | 0.8 | H183/L072 VL V94I (antibody, name in Kabat numbering, V domains shown) VH: QVQLVESGGGLVQPGRSLRLSCAASGFTFSNAWMHWVRQAPGKGLEWVAQIKDKGNAYAAYYAPSVKGRFTISRDDSKNSIYLQMNSLKTEDTAVYYCHYVHYASASTVLPAFGVDAWGQGTTVTVSS VL: DIVMTQSPLSLPVTPGEPASISCQASQELVHMNRNTYLHWYQQKPGQAPRLLIYKVSNRFPGVPDRFSGSGSGTDFTLKISRVEAEDVGVYYCAQGTSIPFTFGQGTKLEIK
16 | 0.9 | H183/L072 VL V51R (antibody, name in Kabat numbering, V domains shown) VH: QVQLVESGGGLVQPGRSLRLSCAASGFTFSNAWMHWVRQAPGKGLEWVAQIKDKGNAYAAYYAPSVKGRFTISRDDSKNSIYLQMNSLKTEDTAVYYCHYVHYASASTVLPAFGVDAWGQGTTVTVSS VL: DIVMTQSPLSLPVTPGEPASISCQASQELVHMNRNTYLHWYQQKPGQAPRLLIYKRSNRFPGVPDRFSGSGSGTDFTLKISRVEAEDVGVYYCAQGTSVPFTFGQGTKLEIK
17 | 0.3 | H183/L072 VL V94L (antibody, name in Kabat numbering, V domains shown) VH: QVQLVESGGGLVQPGRSLRLSCAASGFTFSNAWMHWVRQAPGKGLEWVAQIKDKGNAYAAYYAPSVKGRFTISRDDSKNSIYLQMNSLKTEDTAVYYCHYVHYASASTVLPAFGVDAWGQGTTVTVSS VL: DIVMTQSPLSLPVTPGEPASISCQASQELVHMNRNTYLHWYQQKPGQAPRLLIYKVSNRFPGVPDRFSGSGSGTDFTLKISRVEAEDVGVYYCAQGTSLPFTFGQGTKLEIK
18 | 0.4 | H183/L072 VL V94E (antibody, name in Kabat numbering, V domains shown) VH: QVQLVESGGGLVQPGRSLRLSCAASGFTFSNAWMHWVRQAPGKGLEWVAQIKDKGNAYAAYYAPSVKGRFTISRDDSKNSIYLQMNSLKTEDTAVYYCHYVHYASASTVLPAFGVDAWGQGTTVTVSS VL: DIVMTQSPLSLPVTPGEPASISCQASQELVHMNRNTYLHWYQQKPGQAPRLLIYKVSNRFPGVPDRFSGSGSGTDFTLKISRVEAEDVGVYYCAQGTSEPFTFGQGTKLEIK
19 | 0.4 | H183/L072 VL V94K (antibody, name in Kabat numbering, V domains shown) VH: QVQLVESGGGLVQPGRSLRLSCAASGFTFSNAWMHWVRQAPGKGLEWVAQIKDKGNAYAAYYAPSVKGRFTISRDDSKNSIYLQMNSLKTEDTAVYYCHYVHYASASTVLPAFGVDAWGQGTTVTVSS VL: DIVMTQSPLSLPVTPGEPASISCQASQELVHMNRNTYLHWYQQKPGQAPRLLIYKVSNRFPGVPDRFSGSGSGTDFTLKISRVEAEDVGVYYCAQGTSKPFTFGQGTKLEIK
20 | 1.3 | H183/L072 VL V94T (antibody, name in Kabat numbering, V domains shown) VH: QVQLVESGGGLVQPGRSLRLSCAASGFTFSNAWMHWVRQAPGKGLEWVAQIKDKGNAYAAYYAPSVKGRFTISRDDSKNSIYLQMNSLKTEDTAVYYCHYVHYASASTVLPAFGVDAWGQGTTVTVSS VL: DIVMTQSPLSLPVTPGEPASISCQASQELVHMNRNTYLHWYQQKPGQAPRLLIYKVSNRFPGVPDRFSGSGSGTDFTLKISRVEAEDVGVYYCAQGTSTPFTFGQGTKLEIK
